{
  "source": "patent US9205136B2",
  "about": "“Human aminoacyl-tRNA synthetase polypeptides useful for the regulation of angiogenesis” (THE SCRIPPS RESEARCH INSTITUTE, priority 2000, dated 2015)",
  "molecules": {"B1": {"name": "mini TyrRS mutant: mini TyrRS in which the ELR motif was mutated to ELQ (Glu-Leu-Gln) (protein)", "chain": "MGDAPSPEEKLHLITRNLQEVLGEEKLKEILKERELKIYWGTATTGKPHVAYFVPMSKIADFLKAGCEVTILFADLHAYLDNMKAPWELLELQVSYYENVIKAMLESIGVPLEKLKFIKGTDYQLSKEYTLDVYRLSSVVTQHDSKKAGAEVVKQVEHPLLSGLLYPGLQALDEEYLKVDAQFGGIDQRKIFTFAEKYLPALGYSKRVHLMNPMVPGLTGSKMSSSEEESKIDLLDRKEDVKKKLKKAFCEPGNVENNGVLSFIKHVLFPLKSEFVILRDEKWGGNKTYTAYVDLEKDFAAEVVHPGDLKNSVEVALNKLLDPIREKFNTPALKKLASAAYPDPSKQKPMAKGPAKNSEPEEVILEHHHHHH", "modifications": "His6 tag; Human mini TyrRS mutant in pET20B"}},
  "key": {"[1]": {"test_system": "PMNs", "details": "Kao et al., 1994; cited from earlier work"}, "[2]": {"test_system": "MPs", "details": "Kao et al., 1994; cited from earlier work"}, "[3]": {"test_system": "human umbilical vein endothelial cells (HUVECs)", "experiment": "HUVEC migration assay (modified Boyden chamber)", "assay_type": "cell-based", "details": "50 nM TyrRS molecule or 0.5 nM VEGF165, 6 hours", "description": "In contrast, α-chemokines lacking the ELR motif act as angiostatic factors (id.). In order to evaluate the angiogenic activity of TyrRS, which contains the ELR motif, human full-length TyrRS and human mini TyrRS were first examined for their ability to induce endothelial cell migration. Such angiogenic assays were performed using human umbilical vein endothelial cells (HUVECs) (Clonetics, Walkersville, Md.). Cells were maintained in EGM-2® BULLETKIT® medium (Clonetics) in an atmosphere of 6% CO2 at 37° C. according to the supplier's instructions.\nCell migration assays were performed using the modified Boyden chamber (6.5 mm Transwells) with polycarbonate membranes (8.0 μm pore size) (Costar Corp., Cambridge, Mass.) (Masood et al., 1999, Blood 93:1038-44). Wells were coated overnight with 25 μg/mL human fibronectin (Biosource International, Camarillo, Calif.) in PBS and then allowed to air-dry. HUVECs were suspended in Dulbecco's modified Eagle's medium (DMEM) (Gibco-BRL, Gaithersburg, Md.) containing 0.1% BSA (Sigma) and 2×10^5 cells per well were added to the upper chamber. The chemotactic stimulus (50 nM of a given TyrRS molecule or 0.5 nM of human vascular endothelial growth factor-165 (VEGF165) (Biosource International, Camarillo, Calif.)) was placed in the lower chamber, and the cells were allowed to migrate for 6 hours at 37° C. in a 6% CO2 incubator. After incubation, non-migrant cells were removed from the upper face of the Transwell membrane with a cotton swab and migrant cells, those attached to the lower face, were fixed in methanol and visualized with the HEMACOLOR® stain set (EM Diagnostic Systems, Gibbstown, N.J.). Migrating cells were counted in high-power fields (HPFs). HUVECs were suspended in media with the inhibitor for 30 minutes before placement in the chamber. Each determination shown in FIG. 16 represents the average of nine HPF measurements."}, "[4]": {"test_system": "PMNs", "experiment": "PMN chemotaxis assay (ChemoTX microchemotaxis chamber)", "assay_type": "cell-based, human", "details": "sample proteins 1 nM, 45 min", "description": "Cells for the various cytokine assays described were prepared from acid citrate dextrose-treated blood of normal healthy volunteers. Human PMNs were isolated from the blood by centrifugation (700×g) over Histopaque 1077 and 1119 (Sigma). […] This procedure was repeated twice. Human MPs were isolated by centrifugation on Histopaque 1077 (Sigma). The mononuclear fraction was obtained, washed twice in Hanks' balanced salt solution, resuspended in RPMI-1640 medium (Sigma) containing 10% heat-inactivated fetal bovine serum (Sigma), plated in tissue culture flasks, and incubated in a 6% CO2 incubator at 37° C. for 1-2 hours (Kumagai et al., 1979, J. Immunol. Methods 29:17-25). Nonadherent cells were removed by washing the flasks three times with Hanks' balanced salt solution, and adherent cells were harvested by incubation with calcium-magnesium free phosphate-buffered saline containing 2 mM EDTA for 15 minutes at 4° C., followed by extensive washing.\nPMN chemotaxis assays were performed in a ChemoTX microchemotaxis chamber (described herein). Sample proteins (1 nM) were added to the lower compartment of chemotaxis chambers, and 10^4 PMNs were added to the upper compartment. Chambers were incubated for 45 min, and migrating cells were counted in HPFs. Each determination shown in FIG. 2 represents the average of nine HPF measurements."}, "[5]": {"test_system": "chick chorioallantoic membrane (CAM)", "experiment": "In vivo angiogenesis assay in chick chorioallantoic membrane (CAM)", "details": "250 ng TyrRS molecule or 25 ng VEGF165 on filter disk, 72 hours", "description": "In vivo angiogenesis assays were conducted in chick chorioallantoic membrane (CAM) (Nicolaou et al., 1998, Bioorg. Med. Chem. 6:1185-208). Ten-day-old chick embryos were purchased from Mcintyre Poultry (Lakeside, Calif.) and were incubated at 37° C. and 70% humidity. A small hole was made with a small crafts drill (Dremel, Emerson Electric, Racine, Wis.) directly over the air sac at the end of the egg. The embryos were candled to determine a location to drill a second hole directly over embryonic blood vessels. […] A window was cut in the eggshell over the dropped CAM, exposing the CAM to direct access for experimental manipulation. Cortisone acetate-treated 5 mm filter disks were soaked with a particular protein sample (25 ng of VEGF165 or 250 ng of a given TyrRS molecule) and the filter disks added directly to the CAMs, which were relatively devoid of preexisting blood vessels. The windows were sealed with sterile tape and incubated at 37° C. […] After 72 hours, the CAM tissue associated with the filter disk was harvested and quantified using a stereomicroscope. Angiogenesis was assessed as the number of visible blood vessel branch points within the defined area of the filter disks. Each determination shown in FIG. 17 represents the mean from 5-8 embryos."}, "[6]": {"test_system": "PMNs", "experiment": "125I-human mini TyrRS binding and competition assay on PMNs", "details": "10 nM 125I-mini TyrRS, 200-fold molar excess of unlabeled ligand, on ice 2 hours", "description": "The interaction of human mini TyrRS and PMNs was examined in binding studies using radioiodinated TyrRS molecules (Moser et al., 1993, J. Biol. Chem. 268:7125-28). Custom radioiodination of mini TyrRS with was performed by Research & Diagnostic Antibody (Richmond, Calif.). In the binding assays, 2×10^6 PMNs were first suspended in 120 μl of RPMI-1640 medium containing 20 mM Hepes (pH 7.4) and 10 mg/ml bovine serum albumin. […] Following incubation, cells were separated from unbound radioactivity by centrifugation at approximately 8000×g for 2 minutes through 500 μL, of a 10% sucrose/phosphate-buffered saline (PBS) cushion. The supernatant was aspirated, and the cell sediment was resuspended using EcoLite (ICN Biomedicals, Irvine, Calif.) and analyzed in a scintillation counter.\nFollowing incubation, cells were separated from unbound radioactivity as described herein."}},
  "data": [
    {"molecule": "R-I-G-R-I-I-T (RIGRIIT; listed as Homo sapiens) [synthetic peptide of seven residues near the amino-terminus of human mature EMAP II, Cys replaced by Arg]", "values": [
      {"measurement": "PMN migration induced by synthetic peptide (literature)", "setting": "[1]", "value": "can induce PMN or MP migration"},
      {"measurement": "MP migration induced by synthetic peptide (literature)", "setting": "[2]", "value": "can induce PMN or MP migration"}
    ]},
    {"molecule": "B1", "values": [
      {"measurement": "HUVEC chemotaxis", "setting": "[3]", "value": "no chemotaxis was observed"},
      {"measurement": "PMN chemotaxis (PMN migration)", "setting": "[4]", "value": "did not induce PMN migration"},
      {"measurement": "in vivo angiogenesis in chick CAM (blood vessel branch points)", "setting": "[5]", "value": "failed to induce in vivo angiogenesis"},
      {"measurement": "inhibition of 125I-mini TyrRS binding to PMNs by unlabeled ligand", "setting": "[6]", "value": "did not inhibit the binding"}
    ]}
  ]
}
